The source of these data is publication PMC8699718, “A structurally conserved site in AUP1 binds the E2 enzyme UBE2G2 and is essential for ER-associated degradation” (PLoS Biology, 2021).

Ends that are not written are not given here.

The series has as its system RI332 (truncated Ribophorin I). As to the kind of experiment: CHX chase: RI332 degradation in HT1080 AUP1 KO cells. The format is cell-based, human. Particulars: GFP-G2BR^AUP1 co-expressed with TM-UBE2G2, HT1080 AUP1 KO. The text has this:
Fig 2 The G2BR of AUP1 is required for ERAD of mutant ribophorin and GFP^u. (A) HT1080 or HRD1 KO cells were transfected with plasmid encoding RI332-MYC and with plasmid encoding HRD1 as indicated. Cells were subject to CHX chase and RI332-MYC degradation monitored by western blot. GFP serves as a transfection efficiency control. (B) HT1080 or AUP1 KO cells were transfected with plasmid encoding RI332-MYC and AUP1-FLAG WT or deletion mutants assessed for RI332 degradation. Lower band (*) in MYC blot is nonspecific. (C, D) HEK293 or AUP1 KO cells were assessed for RI332 turnover as in (B). (E) HT1080 or AUP1 KO cells were transfected with GFP^u plasmid, and its degradation assessed by emetine chase, which has previously been used to assess GFP^u turnover. […] (F) HT1080 AUP1 KO cells were transfected with GFP^u and the indicated AUP1-FLAG WT or deletion mutants, and GFP^u degradation assessed as in (E). […]
Fig 8 Recruitment of UBE2G2 to the ER membrane and activation by G2BR^AUP1 is required for ERAD. (A) HT1080 or AUP1 KO cells were transfected with NHK-HA and either empty vector or MYC-UBE2G2 and NHK turnover assessed by CHX chase. (B) AUP1 KO cells were transfected with NHK-HA and GFP fusions of either a scrambled G2BR sequence (SCR) or G2BR^AUP1 and NHK turnover and levels of endogenous UBE2G2 assessed. […] (G) U-2 OS cells were transfected as in (F), and localization assessed by SIM. […]

For “GFP-G2BR^AUP1: GFP fusion of AUP1 aa 378 to 404 (SSWARQESLQERKQALYEYARRRFTER; also: GFP fusion; UniProt Q9Y679 378-404, looked up, fragment)”, the “RI332 degradation, soluble G2BR with TM-UBE2G2” value is recorded as “restored degradation of RI332”.
